# Measured values: the RNAGym collection of RNA variant scans (doi:10.1073/pnas.2313332121)
# B1: TPR t1 (parent)
# chain: GACCAAUCUGCCCUCAGAGCUCGAGAACAUCUUCGGAUGCAGAGGAGGCAGGCUUCGGUGGCGCGAUAGCGCCAACGUCCUCAACCUCCAAUGCAUCCCACCACAUGAUGAUGCCUGAAGAGCCUUGGUUUUUUG
# Variants of: B1
# Experiment: polymerase ribozyme fitness, log enrichment relative to wild type (log ratio); higher = more active; in vitro selection for triplet polymerase activity
# In short: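 Input and output libraries were sequenced on Illumina after a single in vitro selection round, run in triplicate on PCR-built, transcribed mutant libraries of each subunit of a heterodimeric triplet polymerase ribozyme. Selection annealed libraries to a biotinylated primer, the partner subunit and triplets, incubated them frozen at −7 °C, then gel-excised extended constructs for streptavidin-bead capture and RT-PCR. Genotypes with ≥10 input reads and ≥1 read per output were kept. Fitness is the logarithm, taken in base 2, of genotype enrichment divided by wild-type enrichment, using inverse-variance-weighted replicate averages.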
row,Variant,polymerase ribozyme fitness (log ratio)
1,A6C C13A C88A,-3.16
2,A43U A46U C97U,-3.34
3,A68C,-6.94
4,G60C G63A,-5.52
5,C15U A91G A105G U112A,-3.8
6,C20U G63U,-2.43
7,C49G G51C A119U U133C,-3.18
8,C28A A75G G120U U129G,-6.26
9,C20U G42A C124G U126C G135U,-1.98
10,G47U G58U G120U,-1.02
11,C8U A50U A75U U130A,-1.78
12,A18C U92C C97U,-4.36
13,C8U U78C U92G C115A A119U,-0.985
14,U126A,-1.69
15,C4G A24C A100C U112A U116G,-5.42
16,C11G A66U,-0.995
17,G128U U130C,0.0266
18,G52U C73G U112A G120A C124A U126A,-0.0832
19,G61A U92A C123A,-2.16
20,C20U U96A,-2.25
21,C8G A46U A91U G117C,-2.28
22,C20U U33G U59A G107U G110C,-6.84
23,G45A C53U C97U C115U U126C U130A,-5.76
24,C73U C102A,-1.58

row,Variant,polymerase ribozyme fitness (log ratio)
1,C49A A84C C99U,-3.55
2,A2U C98U,-3.18
3,C12G C15U G48A G61A U81G C123U,-2.3
4,U21G G42U U112A,0.673
5,U30C A37C,-3.86
6,A18C G35A U59C U112A,-6.14
7,C88U G113U,-3.09
8,C13U C62U,-0.0202
9,A6G C15U C49A C53A G71U U78A,-0.614
10,C12G C28U C72U C123U U125G,-0.502
11,C8G G36A A74U A90G,-0.292
12,G51A G122A G135U,-4.44
13,A18G A74C C79U,-4.7
14,C8U C13U G35C A46U C115A,-3.54
15,C56U A95C G128C,-2.78
16,C72G C102U,-1.53
17,A111U,-2.62
18,C94A A95C U131G,-2.37
19,G36A C56U,-0.261
20,A6C C11U G61U G113U,-4.99
21,G39U C97A,-5.98
22,C4U C40U,-1.42
23,C99A G122A,-5.29
24,A26G A50G C56G C82G,-3.42

row,Variant,polymerase ribozyme fitness (log ratio)
1,C8G A50U U54C U106A G117A,-0.842
2,A5G G63A U67G U96A C123U,-5.12
3,C13U A29U U78A C80U U96G U116G G120U G122A,-5.15
4,A5C A118G,-0.499
5,C70U C79A,-2.03
6,A105G U112C,-0.683
7,U9A C49A C56U C73A,-0.459
8,G17C A91C,-4.65
9,A27G C88U U92A C104A U109C A119G U133A,-7.24
10,A2G U78A G128A,-2.62
11,G63A A75G G122A G127U,-3.17
12,G44A C98U C104U U116C,-4.16
13,U54A A108U,-4.71
14,C3U G47A G61A A84C,-0.617
15,C8U G45A,0.126
16,C12A A16U C56A,-3.74
17,G61U C72U,-0.409
18,G42A C70U,-2.09
19,U7C U96C C102A A108U C114U,-5.22
20,A26U U81C,-3.05
21,C13G G17C U112G U116G,-4.51
22,U126C U132C,-1.79
23,C11U A37G U96G,-2.69
24,C11G A37U A41U A95C U106C C124A,-1.05

row,Variant,polymerase ribozyme fitness (log ratio)
1,G60C C76U,-3.93
2,A5G G93A,-1.17
3,U78A A100C,-1.08
4,G113A C114A U125A U133A,-3.52
5,G51U C101U,-4.07
6,A29U C76U U78A,-2.22
7,C12U A46U,-0.688
8,C40G U132A,-0.821
9,G44C A46U C86U,-2.43
10,A41U A46U G63U C115A G120U C123G,-3.28
11,A5U A95C G120C,0.108
12,A6G C22A G48U G110U,-6.03
13,C12U A50U U59G A119U,-0.98
14,C20G C94U C114A G122U U125G,-6.15
15,C89U C123U,0.813
16,A27C G71A U116C,-4.74
17,C8A G61U G117U A119U C123U,-0.671
18,A95C U116G,-2.17
19,U32A U38C G69C A95U,-6.24
20,C12U A27G G69A C88A U125G,-3.8
21,A37G U59G,0.0397
22,G10C A74G,-1.26
23,C89G U106A G120C G122C,-1.85
24,G58C G60C,-0.636

row,Variant,polymerase ribozyme fitness (log ratio)
1,C11G G69C,-1.7
2,G60C C79G G122A,-2.36
3,C49A G71A C98G A100C,-7.02
4,C13G A24G A27G C56G A111C,-7.83
5,A2U A6G U92C A121C,-0.755
6,C56U G135C,0.59
7,C15U U21C C49G G117A,0.389
8,G61A U133G,-0.781
9,C85U U116A C123U U129A,-5.12
10,C15U C80A,-4.32
11,G51A C70G,-6.9
12,G63C G110A,-1.89
13,C8U G48A C72U,0.0222
14,A50C A84C,-1.1
15,C8U C64U C101G G110A,-3.18
16,C12U U21G C62G A74C U78A,-3.33
17,C72U A91U,-1.73
18,G120U U125A,0.531
19,U9G U87A A100C,-0.443
20,U9C A41C U87C C114U,-0.644
21,A29C A37G G47U C72U C101U G110U,-6.59
22,U14A C123U G127A,-0.509
23,C22A A74U C123A U125G,-5.38
24,C64A A83U,-7.05

row,Variant,polymerase ribozyme fitness (log ratio)
1,G61U C104U A108C A121U,-2.95
2,A6C C72A,-1.05
3,G113U A119C,-5.27
4,A84C C123U U133G,0.656
5,C11G G45U G51C G61A,-3.84
6,C56A C86A,-0.76
7,C34A C49G C76G U96A C124U U131G U134C,-2.1
8,A41G G60A,-0.408
9,C15A C20U C73A G93A,-3.83
10,C8G G69U G107U G113A,-1.04
11,G63U C85U G110U,-4.39
12,C72U G93U A111G,-2.76
13,G17A G63C U109A C115A,-6.25
14,U54A U81G G120A,-3.57
15,C4G U9G C13A C82U A111G,-2.04
16,C3U C11G A24G C40U C62G,-3.32
17,U21G C73G A83G,-3.58
18,U9G G39A G57A C114G G117A,-6.32
19,U7A C8A C13U C56U G61A C79U G120A,-4.91
20,C102A U112G U132A,-2.53
21,C3G C8G C73U C101G G120U,-0.772
22,G48C A83U A111C A118C,-0.0367
23,C20G C40A C70U U92A G93A G113C,-6.62
24,C8G G63C,-1.11

row,Variant,polymerase ribozyme fitness (log ratio)
1,G113U C124A,-1.53
2,C56A C97A,-3.81
3,A5U A43G G44A G52C G63C C124U G128U,-4.22
4,A41U C102U,-3.6
5,C31U U78G C101G C104A G110A,-5.57
6,C12U C79G C101U G120A,0.377
7,C12A C53U U78A U81G,-2.32
8,A95U U106G G120U,-2.83
9,U32A C56A,-3.44
10,U7A A27U G48U U87C G120U,-2.16
11,A5G C82U,-0.0686
12,G10A C13U A27U,-2.05
13,A6U G135U,-0.769
14,C8U U87A U112C G117U U130C,-0.73
15,C56U G77C,-0.361
16,U78C U81G G120C,-1.18
17,C22G G57A A68C C80A C101U C124A,-6.21
18,G35U C53U C124G,-4.66
19,C49A G77A U106C C114A,-2.9
20,A41C A91U A95C G113A,-3.38
21,C49U G71C,-2.01
22,C3A U9C C11A C49G U109A U126G,-6.11
23,C13U C53A U92G C101U,-1.94
